Source: article PMC4619679

Target: Dnmt1 (N-His) (UniProt P13864)
Experiment: MST
Details: EMSA: 20 mM Tris pH 7.6, 30 mM KCl, 5 mM EDTA, 1 mM DTT, 5 uM SAM, 20% glycerol, 26 C, MST: 10 mM Tris/Cl, 150 mM KCl, 0.75 mM MgCl2, 0.25 mM EGTA

UniProt P13864, sequence (P13864 whole entry): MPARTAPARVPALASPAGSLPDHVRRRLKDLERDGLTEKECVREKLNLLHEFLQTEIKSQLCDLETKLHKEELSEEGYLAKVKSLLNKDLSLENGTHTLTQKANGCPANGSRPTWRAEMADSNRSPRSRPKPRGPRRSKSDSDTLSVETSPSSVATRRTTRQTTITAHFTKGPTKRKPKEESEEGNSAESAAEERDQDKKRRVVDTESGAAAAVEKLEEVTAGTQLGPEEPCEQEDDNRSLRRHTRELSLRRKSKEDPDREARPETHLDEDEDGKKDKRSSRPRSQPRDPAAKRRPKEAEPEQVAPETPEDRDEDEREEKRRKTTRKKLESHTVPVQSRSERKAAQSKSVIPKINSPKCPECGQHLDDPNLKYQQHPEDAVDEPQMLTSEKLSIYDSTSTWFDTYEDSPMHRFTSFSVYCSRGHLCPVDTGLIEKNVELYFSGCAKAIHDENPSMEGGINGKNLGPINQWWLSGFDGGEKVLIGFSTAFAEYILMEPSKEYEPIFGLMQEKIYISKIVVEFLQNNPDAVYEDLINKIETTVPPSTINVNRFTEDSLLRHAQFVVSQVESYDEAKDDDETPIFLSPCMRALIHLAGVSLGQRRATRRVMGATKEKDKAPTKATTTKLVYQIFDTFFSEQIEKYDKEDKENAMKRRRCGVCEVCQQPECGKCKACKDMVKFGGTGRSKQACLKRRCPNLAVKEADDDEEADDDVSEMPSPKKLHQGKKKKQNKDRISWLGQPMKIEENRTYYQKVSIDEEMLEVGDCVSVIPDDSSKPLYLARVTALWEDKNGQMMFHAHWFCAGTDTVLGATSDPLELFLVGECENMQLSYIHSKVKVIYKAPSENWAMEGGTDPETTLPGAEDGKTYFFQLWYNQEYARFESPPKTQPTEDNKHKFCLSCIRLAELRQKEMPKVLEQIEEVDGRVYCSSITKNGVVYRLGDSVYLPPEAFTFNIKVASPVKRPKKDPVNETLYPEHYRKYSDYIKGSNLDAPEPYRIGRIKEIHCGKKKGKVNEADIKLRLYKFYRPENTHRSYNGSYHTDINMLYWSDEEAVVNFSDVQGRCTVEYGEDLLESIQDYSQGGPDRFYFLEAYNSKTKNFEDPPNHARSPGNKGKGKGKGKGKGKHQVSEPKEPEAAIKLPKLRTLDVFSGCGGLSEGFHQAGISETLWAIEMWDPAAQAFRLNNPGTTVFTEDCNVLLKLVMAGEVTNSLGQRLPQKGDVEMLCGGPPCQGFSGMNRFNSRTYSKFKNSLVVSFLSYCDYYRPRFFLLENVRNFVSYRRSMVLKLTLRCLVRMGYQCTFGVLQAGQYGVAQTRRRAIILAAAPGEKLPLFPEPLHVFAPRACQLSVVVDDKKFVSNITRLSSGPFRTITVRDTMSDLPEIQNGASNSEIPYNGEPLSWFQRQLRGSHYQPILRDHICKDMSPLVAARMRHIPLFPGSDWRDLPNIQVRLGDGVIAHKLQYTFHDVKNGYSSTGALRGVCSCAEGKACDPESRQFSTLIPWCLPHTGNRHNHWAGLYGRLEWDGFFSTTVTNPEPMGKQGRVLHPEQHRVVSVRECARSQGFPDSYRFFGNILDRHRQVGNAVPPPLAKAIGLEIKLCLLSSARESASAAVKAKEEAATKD

| Sequence | K half | binding signal (fold higher affinity with SAM) (160 uM SAM, 5-methyl-C at Z positions of the lower strand (C5, C12, C18, C20, C29, C33, C40, C42, C49; strand printed only up to TTAGAZG, so the CG in the last 8 nt is unknown)) |
| --- | --- | --- |
| TGCGGAATCGTCTAACGCGTGGAATCGTCCGATTGAGGTCGCGATCTCGAATCACGGTGC (double strand) [AIR60 non-methylated 60 bp DNA] | 1500 nM | – |
| TGCGGAATCGTCTAACGCGTGGAATCGTCCGATTGAGGTCGCGATCTCGAATCACGGTGC (double strand) [AIR60 hemi-methylated 60 bp DNA] | – | 2 |
